Literature values, collected in publication PMC10530560 (Cell chemical biology, 2023).

Columns and labels:
CCL5 [1] = test system: CCL5
CXCL12 [2] = test system: CXCL12
VISTA = settings: pH-dependent; dependent on tyrosine sulfation, not on SLe^x on Thr57
CXCL12 [3] = settings: CXCL12, chemotaxis assays using murine T-cells from WT and PSGL-1 null mice
CCL5 [4] = settings: CCL5, immobilized rPSGL-1 with SLe^x modification

Molecule | heparan sulfate binding (CXCL8) | heparan sulfate binding (CCL5 [1]) | heparan sulfate binding (CCL3) | heparan sulfate binding (CXCL12 [2]) | binding of VISTA (VISTA) | binding to PSGL-1 (CCL27) | binding to PSGL-1 (CXCL12 [3]) | binding to PSGL-1 (CCL5 [4]) | binding to PSGL-1 (CCL19) | binding to PSGL-1 (CCL21)
heparan sulfate | did not bind | found to bind | did not bind | found to bind |  |  |  |  |  | 
PSGL-1: P-selectin glycoprotein ligand-1 as tested in previous literature studies (protein, UniProt Q14242 42-412, looked up) P-selectin glycoprotein …: QATEYEYLDYDFLPETEPPEMLRNSTDTTPLTGPGTPESTTVEPAARRSTGLDAGGAVTELTTELANMGNLSTDSAAMEIQTTQPAATEAQTTQPVPTEAQTTPLAATEAQTTRLTATEAQTTPLAATEAQTTPPAATEAQTTQPTGLEAQTTAPAAMEAQTTAPAAMEAQTTPPAAMEAQTTQTTAMEAQTTAPEATEAQTTQPTATEAQTTPLAAMEALSTEPSATEALSMEPTTKRGLFIPFSVSSVTHKGIPMAASNLSVNYPVGAPDHISVKQCLLAILILALVATIFFVCTVVLAVRLSRKGHMYPVRNYSPTEMVCISSLLPDGGEGPSATANGGLSKAKSPGLTPEPREDREGDDLTLHSFLP |  |  |  |  | novel pH-dependent ligand | reported to bind PSGL-1 | did not bind | did not bind | reported to bind PSGL-1 | reported to bind PSGL-1
